Reference: patent US20250388889A1 (priority 2019, published 2025)
“And” between values parts separate entries of the source, which are not always exact repeats. Equal values may be shown once. “Also recorded” adds a separate entry of the source. Marks after values point to notes of the source that are not given here.

Columns and labels:
c-MYC [1] = type: cell-based, human
[2] = tested on: A498 kidney epithelial cells; type: cell-based, human
CK1α1 [3] = type: cell-based, human
MB49 bladder tumors = conditions: mouse, in vivo
CK1α1 [4] = molecular target: CK1α1 (Homo sapiens, UniProt P48729)
Method: Kidney epithelial cells were stained with rabbit anti-c-MYC (Abcam), rabbit anti-CK1α1 (Cell Signaling Technology), rabbit anti-c-MYB (Sigma Aldrich), rabbit anti-CEBPD (Abcam) or mouse anti-his6-tag primary antibodies (1:200 in 5% FBS/PBS, overnight at 4° C.), followed by secondary goat anti-rabbit Alexa Fluor 488-conjugated or goat-anti mouse Alexa Fluor 568-conjugated antibodies (Molecular Probes, A-11034) (1:200 in 5% FBS and 0.025% Triton X-100/PBS, 1 hour at room temperature). Cells were counterstained with DRAQ5 (Abcam) and examined using a LSM 510 META laser scanning confocal microscope (Carl Zeiss). Fluorescence signal was quantified in 50 cells per condition using Image J.
Cells were lysed with NP-40 lysis buffer supplemented with protease and phosphatase inhibitors (Roche diagnostics). Proteins were run on SDS-PAGE (4-12% Bis-Tris gels, Invitrogen), blotted onto PVDF membranes (Biorad), blocked and stained with primary rabbit anti-c-MYC (1:1000, Abcam), rabbit anti-CK1α1 (1:1000, Cell Signaling Technology) or rabbit-anti-Lon (1:2000, Biorbyt) overnight at 4° C. Membranes were washed and stained with HRP-conjugated goat anti-rabbit HRP conjugated secondary antibodies (1:4000, Cell Signaling) washed again, imaged using ECL plus detection reagent (GE Healthcare) and quantified by ImageJ. β-actin was used as a loading control.

MAX [5] = molecular target: T1, MAX (Homo sapiens, UniProt P61244); experiment: In vitro degradation assay, MAX; type: biochemical
Method: (§1) 0.1 μg of recombinant proteins were incubated with 0.2 μg of Lon protease (Abcam, ab141921), or PBS, in a reaction buffer consisting of 20 mM MgCl2 in the presence of ATP (2 mM) in 50 mM Tris. pH 8.0. Proteins were incubated at 37° C. for 60, 120 or 240 minutes and were denatured using 10 mM DTT in NuPAGE Sample Buffer at 100° C. for 5 minutes before further analysis.

CEBP-δ = type: cell-based, human
Actin = type: biochemical
HH3 = type: biochemical
GRP75 = GRP75 (Homo sapiens, UniProt P38646); experiment: In vitro degradation assay, GRP75; type: biochemical
Method: as §1

intestinal polyps = tested on: intestinal polyps; parameters: species or system C57BL/6J-APC^min/J mice; conditions: mouse, in vivo
c-MYC [6] = type: cell-based, human; remark: listed apart in the source
[7] = mouse, in vivo
MAX [8] = molecular target: T1, MAX; type: binding
[9] = mouse, in vivo; remark: listed apart in the source
c-MYC [10] = molecular target: T2, c-MYC (Homo sapiens, UniProt P01106); type: binding
T2 construct: GST

AKT = type: biochemical
c-MYC [11] = molecular target: T2, c-MYC; experiment: In vitro degradation assay of recombinant c-MYC by Lon protease; type: biochemical
Method: […] Proteins were incubated at 37° C. for 60, 120 or 240 minutes and were denatured using 10 mM DTT in NuPAGE Sample Buffer at 100° C. for 5 minutes before further analysis.
Samples were diluted with NuPAGE LDS sample buffer (Invitrogen) mixed with 10 mM dithiotreitol (DTT) and incubated at 56° C. for 20 min followed by addition of iodoacetamide (IAA) to a final concentration of 20 mM. Samples were loaded on 4-12% NuPAGE (Invitrogen). The electrophoresis was run in MOPS buffer. The gel was Coomassie stained and bands of interest were excised from the SDS-PAGE and trypsin digested, followed by identification using LC-MS/MS as per above. MS/MS spectra were investigated with PEAKS (version 10) against UniProt Human (released 2020 Feb. 21) where the sequence for GST-tag-MYC had been added. The precursor tolerance and fragment tolerance were set to 10 ppm and 0.05 Da, respectively. None enzyme was selected, methionine oxidation and deamidation of asparagine and glutamine were treated as dynamic modification and carbamidomethylation of cysteine as a fixed modification.

CDK9 = CDK9 (Homo sapiens, UniProt P50750); experiment: In vitro degradation assay, CDK9; type: biochemical
Method: as §1

c-MYB = type: cell-based, human
CBEB1 = CBEB1 (Homo sapiens, UniProt Q9BZB8); experiment: In vitro degradation assay, CPEB1; type: biochemical
Method: as §1

T2 sequence (P01106 16-454): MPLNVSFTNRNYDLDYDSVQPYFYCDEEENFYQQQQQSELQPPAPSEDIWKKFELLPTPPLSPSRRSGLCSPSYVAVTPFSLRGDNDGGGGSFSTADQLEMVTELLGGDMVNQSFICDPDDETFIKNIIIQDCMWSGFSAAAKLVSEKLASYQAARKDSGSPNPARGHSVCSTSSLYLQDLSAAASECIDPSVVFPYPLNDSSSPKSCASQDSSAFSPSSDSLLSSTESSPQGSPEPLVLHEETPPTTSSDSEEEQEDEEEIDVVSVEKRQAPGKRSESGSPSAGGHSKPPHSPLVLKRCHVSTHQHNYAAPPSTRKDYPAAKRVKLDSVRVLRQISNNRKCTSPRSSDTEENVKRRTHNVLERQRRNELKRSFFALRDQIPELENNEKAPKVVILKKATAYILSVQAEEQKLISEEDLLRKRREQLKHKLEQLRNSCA
T1 sequence (P61244 whole entry, species assumed): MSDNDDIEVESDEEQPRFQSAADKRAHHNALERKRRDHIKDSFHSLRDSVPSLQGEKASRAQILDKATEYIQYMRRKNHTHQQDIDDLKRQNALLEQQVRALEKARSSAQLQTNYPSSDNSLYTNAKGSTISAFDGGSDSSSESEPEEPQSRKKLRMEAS
CK1α1 (Homo sapiens, UniProt P48729), sequence (P48729 whole entry): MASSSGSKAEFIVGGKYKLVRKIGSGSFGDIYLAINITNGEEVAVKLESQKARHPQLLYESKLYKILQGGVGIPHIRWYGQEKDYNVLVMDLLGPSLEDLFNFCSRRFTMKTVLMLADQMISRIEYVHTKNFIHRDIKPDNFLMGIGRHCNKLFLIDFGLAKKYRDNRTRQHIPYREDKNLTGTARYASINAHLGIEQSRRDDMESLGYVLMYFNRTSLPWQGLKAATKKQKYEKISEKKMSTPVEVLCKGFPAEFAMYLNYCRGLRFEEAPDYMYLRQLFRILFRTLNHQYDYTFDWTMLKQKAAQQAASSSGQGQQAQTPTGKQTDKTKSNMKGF
GRP75, sequence (P38646 47-679, species assumed): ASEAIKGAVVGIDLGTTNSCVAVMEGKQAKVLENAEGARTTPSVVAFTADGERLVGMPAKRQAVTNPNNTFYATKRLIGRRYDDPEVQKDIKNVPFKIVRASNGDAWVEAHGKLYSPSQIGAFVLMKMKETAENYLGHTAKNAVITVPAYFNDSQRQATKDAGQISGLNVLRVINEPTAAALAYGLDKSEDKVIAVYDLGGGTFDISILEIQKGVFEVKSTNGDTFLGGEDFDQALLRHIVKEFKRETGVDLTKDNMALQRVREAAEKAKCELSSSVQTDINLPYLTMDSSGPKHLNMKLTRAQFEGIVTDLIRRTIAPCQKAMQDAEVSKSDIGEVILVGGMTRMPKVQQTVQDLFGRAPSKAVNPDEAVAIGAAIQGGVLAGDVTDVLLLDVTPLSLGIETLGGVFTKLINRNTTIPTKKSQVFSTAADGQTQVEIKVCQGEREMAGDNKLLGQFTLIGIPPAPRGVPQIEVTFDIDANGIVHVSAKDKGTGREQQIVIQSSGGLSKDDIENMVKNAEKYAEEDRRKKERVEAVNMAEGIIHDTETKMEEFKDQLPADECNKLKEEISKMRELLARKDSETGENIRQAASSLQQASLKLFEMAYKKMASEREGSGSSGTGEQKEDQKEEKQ
CDK9, sequence (P50750 whole entry, species assumed): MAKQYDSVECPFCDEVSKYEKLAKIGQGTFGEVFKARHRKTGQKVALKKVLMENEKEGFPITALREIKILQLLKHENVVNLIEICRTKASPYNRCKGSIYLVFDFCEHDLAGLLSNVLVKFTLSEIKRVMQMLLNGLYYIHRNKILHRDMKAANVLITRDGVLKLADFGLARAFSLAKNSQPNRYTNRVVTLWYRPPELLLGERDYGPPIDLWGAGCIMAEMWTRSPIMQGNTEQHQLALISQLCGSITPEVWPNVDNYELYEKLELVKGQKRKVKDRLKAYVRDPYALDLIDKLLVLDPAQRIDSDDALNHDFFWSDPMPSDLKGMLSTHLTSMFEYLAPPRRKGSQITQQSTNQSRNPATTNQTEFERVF
CBEB1, sequence (Q9BZB8 whole entry): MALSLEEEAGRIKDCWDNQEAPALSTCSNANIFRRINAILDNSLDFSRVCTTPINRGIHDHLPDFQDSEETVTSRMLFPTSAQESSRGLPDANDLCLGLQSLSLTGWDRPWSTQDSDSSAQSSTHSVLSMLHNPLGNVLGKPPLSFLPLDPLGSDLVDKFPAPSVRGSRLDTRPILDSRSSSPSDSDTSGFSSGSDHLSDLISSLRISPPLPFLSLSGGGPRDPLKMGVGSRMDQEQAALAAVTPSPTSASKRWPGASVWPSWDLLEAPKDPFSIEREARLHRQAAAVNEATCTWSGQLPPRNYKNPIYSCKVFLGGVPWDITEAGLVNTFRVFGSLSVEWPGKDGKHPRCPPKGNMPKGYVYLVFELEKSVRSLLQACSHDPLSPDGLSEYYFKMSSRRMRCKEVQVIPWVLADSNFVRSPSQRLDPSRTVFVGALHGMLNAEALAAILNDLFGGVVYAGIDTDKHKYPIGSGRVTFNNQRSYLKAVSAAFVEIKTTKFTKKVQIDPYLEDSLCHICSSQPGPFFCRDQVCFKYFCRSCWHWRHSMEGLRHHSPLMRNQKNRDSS

## [Ca+2].[Cl-].[Cl-] [CaCl2]
c-MYC [1]
  Effect of metal ion pretreatment of E. coli 536 on c-MYC inhibition: no effect

## O=C(N/N=C/c1ccc(O)c(O)c1)c1cc2ccccc2cc1O [Dynasore]
[2]
  Lon protease staining and uptake after endocytosis inhibitor pre-treatment: reduced Lon protease staining and uptake

## O=C(O)CN(CCOCCOCCN(CC(=O)O)CC(=O)O)CC(=O)O [EGTA, Egtazic acid]
CK1α1 [3]
  Effect on CK1α1 activation: inhibited the activation of CK1α1

## COc1cccc2c1C(=O)c1c(O)c3c(c(O)c1C2=O)C[C@@](O)(C(=O)CO)C[C@@H]3O[C@H]1C[C@H](N)[C@@H](O)[C@H](C)O1 [Epirubicin, reference compound]
MB49 bladder tumors
  Bladder size % Sham (range): 65 (53-70)^b % Sham
  Bladder weight g^−1 (range): 3.9 (3.2-4.8)^b g^−1

## COc1cc(OC)c(C=C2C(O)=Nc3ccccc32)c(OC)c1 [IC261]
CK1α1 [4]; 100 μg/ml, 30 minutes pre-treatment, E. coli 536
  Effect on c-MYC degradation in infected cells: reduced c-MYC degradation
CK1α1 [4]; 30 minutes
  Effect on c-MYB inhibition by E. coli 536: reversed c-MYB inhibition

## [Cl-].[Cl-].[Mg+2] [MgCl2]
c-MYC [1]
  Effect of metal ion pretreatment of E. coli 536 on c-MYC inhibition: no effect

## CO[C@@]12[C@H](COC(N)=O)C3=C(C(=O)C(C)=C(N)C3=O)N1C[C@@H]1N[C@@H]12 [Mitomycin, reference compound]
MB49 bladder tumors
  Bladder size % Sham (range): 67 (54-87)^b % Sham
  Bladder weight g^−1 (range): 4 (3.4-5.9)^b g^−1

## [Cl][Mn][Cl] [MnCl2]
c-MYC [1]
  Effect of metal ion pretreatment of E. coli 536 on c-MYC inhibition: no effect

## O=c1c(O)c(-c2ccc(O)c(O)c2)oc2cc(O)cc(O)c12 [Quercetin]
[2]
  Lon protease staining and uptake after endocytosis inhibitor pre-treatment: reduced Lon protease staining and uptake

## [Cl-].[Cl-].[Zn+2] [ZnCl2]
c-MYC [1]
  Effect of metal ion pretreatment of E. coli 536 on c-MYC inhibition: reversed c-MYC inhibition
  Effect of treating the active E. coli 536 supernatant on MYC levels in host cells: did not affect MYC levels in host cells

B1: Lon protease: Recombinant bacterial (E. coli) ATP-dependent serine peptidase Lon, commercially produced in E. coli K12 (protein, UniProt P0A9M0 2-784, looked up)
Lon protease: NPERSERIEIPVLPLRDVVVYPHMVIPLFVGREKSIRCLEAAMDHDKKIMLVAQKEASTDEPGVNDLFTVGTVASILQMLKLPDGTVKVLVEGLQRARISALSDNGEHFSAKAEYLESPTIDEREQEVLVRTAISQFEGYIKLNKKIPPEVLTSLNSIDDPARLADTIAAHMPLKLADKQSVLEMSDVNERLEYLMAMMESEIDLLQVEKRIRNRVKKQMEKSQREYYLNEQMKAIQKELGEMDDAPDENEALKRKIDAAKMPKEAKEKAEAELQKLKMMSPMSAEATVVRGYIDWMVQVPWNARSKVKKDLRQAQEILDTDHYGLERVKDRILEYLAVQSRVNKIKGPILCLVGPPGVGKTSLGQSIAKATGRKYVRMALGGVRDEAEIRGHRRTYIGSMPGKLIQKMAKVGVKNPLFLLDEIDKMSSDMRGDPASALLEVLDPEQNVAFSDHYLEVDYDLSDVMFVATSNSMNIPAPLLDRMEVIRLSGYTEDEKLNIAKRHLLPKQIERNALKKGELTVDDSAIIGIIRYYTREAGVRGLEREISKLCRKAVKQLLLDKSLKHIEINGDNLHDYLGVQRFDYGRADNENRVGQVTGLAWTEVGGDLLTIETACVPGKGKLTYTGSLGEVMQESIQAALTVVRARAEKLGINPDFYEKRDIHVHVPEGATPKDGPSAGIAMCTALVSCLTGNPVRADVAMTGEITLRGQVLPIGGLKEKLLAAHRGGIKTVLIPFENKRDLEEIPDNVIADLDIHPVKRIEEVLTLALQNEPSGMQVVTAK
MAX [5]
  Degradation of MAX in vitro: not detected
Human kidney cells
  Cytotoxic effects in human kidney cells: not detected
CEBP-δ
  CEBP-δ degradation: < 5%
Actin
  Degradation of Actin in vitro: not degraded
HH3
  Degradation of HH3 in vitro: not degraded
MB49 bladder tumors
  Bladder size % Sham (range): 69 (53-85)^a % Sham
  Bladder size, weight and pathology compared to day 12: remained unchanged
  Bladder weight g^−1 (range): 5.3 (3.9-6.3)^a g^−1
  Bladder weights and pathology scores versus sham: remained lower than in the sham group
  Cancer gene networks as share of all regulated genes, compared to sham: 96.6%
  Day until which mice remained asymptomatic: 27 days and 34 days
  Efficiency compared with E. coli 536 supernatant (tumor progression, gene expression): more efficient
  Expression of genes potentially involved in toxicity, compared with E. coli 536-treated mice: less strongly expressed
  Gene expression inhibited compared to the sham group: 95%
  Mice with bladder tumors present: 15/15
  Mice with hematuria: 3/15 and 2/12
  Subset of bladder cancer related genes inhibited: 11.8%
  Survival (Kaplan Meyer plot): increased survival
GRP75
  Degradation of GRP75 in vitro: not degraded
Intestinal polyps
  Body weight at long-term follow up compared to sham: increase
  Cancer gene networks as share of all regulated genes: 93%
  Day until which mice remained asymptomatic: 175 days
  Intestinal polyp number at long-term follow up compared to sham: significant reduction
  MYC expression and MYC-dependent gene networks: inhibited
  Polyp number compared to sham and pre-treatment samples: reduced the polyp number
  Subset of colorectal cancer genes: 54%
  Survival (Kaplan Mayer plot): increased survival
c-MYC [6]
  c-MYC staining in human kidney cells: dose-dependent decrease
[7]
  MYC-related genes activated: 1
  MYC-related genes inhibited: 8
[7]; po
  Body weight and macroscopic appearance of organs: No change
  MYC expression in intestines: not regulated
MAX [8]
  Pull-down of recombinant MAX: Weak pull-down
[9]
  Bladder weight and macroscopic appearance of the bladder: No change
  MYC expression in bladders: not regulated
  MYC-dependent genes activated: 33
  MYC-dependent genes inhibited: 1
c-MYC [10]
  Binding to c-MYC by co-immunoprecipitation: verified; also recorded: dose-dependent
AKT
  Degradation of AKT in vitro: not degraded
c-MYC [11]; FIG. 17i
  c-MYC degradation, comparative analysis of protein degradation: degraded after 3 hours
c-MYC [11]; Recombinant c-MYC (1 μg) with Lon protease (2 μg), 37° C., 0 to 4 hours, from 200 ng, n=3
  c-MYC remaining after Lon dependent degradation: 79 ng
c-MYC [11]; control sample 23 peptides
  Number of specific c-MYC peptides found after rLon degradation (LC-MS/MS): 10
c-MYC [11]; control sample 51%
  c-MYC sequence covered by specific peptides after rLon degradation (LC-MS/MS): 23%
c-MYC [11]; recombinant c-MYC, kinetics
  c-MYC degradation in vitro: degrade recombinant c-MYC in vitro, in a time dependent manner
CDK9
  Degradation of CDK9 in vitro: not degraded
c-MYB
  c-MYB decrease compared to PBS: 45%
CBEB1
  Degradation of CBEB1 in vitro: not degraded
